Measured values: patent US20030157096A1 (ZymoGenetics, published 2003)

Legend:
[1] = target: T1, zcytor11 and CRF2-4 receptors co-expressed on transfected BaF3 or BHK cells (human, UniProt Q08334 20-325, limits assumed); test: flow cytometry, biotinylated IL-TIF-CEE at 10 or 1 µg/ml plus PE-streptavidin on BaF3 transfectants (same results stated for BHK transfectants)
T1 construct: whole, on cells; The two receptor subunits are co-transfected in one cell line; also called zcytor11/CRF2-4; BaF3/zcytor11/CRF2-4
T1 sequence 1: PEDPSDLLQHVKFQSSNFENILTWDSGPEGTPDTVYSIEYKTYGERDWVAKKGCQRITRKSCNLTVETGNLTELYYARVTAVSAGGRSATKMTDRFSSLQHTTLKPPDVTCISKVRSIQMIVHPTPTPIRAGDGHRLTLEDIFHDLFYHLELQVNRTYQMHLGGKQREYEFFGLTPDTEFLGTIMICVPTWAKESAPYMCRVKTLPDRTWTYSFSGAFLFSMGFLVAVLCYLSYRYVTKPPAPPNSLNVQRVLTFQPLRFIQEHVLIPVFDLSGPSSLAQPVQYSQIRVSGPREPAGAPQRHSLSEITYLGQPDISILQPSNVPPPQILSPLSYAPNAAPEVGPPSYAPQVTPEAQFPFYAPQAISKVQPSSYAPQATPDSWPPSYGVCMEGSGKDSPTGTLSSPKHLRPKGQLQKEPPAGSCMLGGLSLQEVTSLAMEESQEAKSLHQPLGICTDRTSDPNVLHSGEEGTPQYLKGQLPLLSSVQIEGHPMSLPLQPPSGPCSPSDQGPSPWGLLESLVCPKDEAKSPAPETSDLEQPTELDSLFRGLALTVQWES
T1 sequence 2: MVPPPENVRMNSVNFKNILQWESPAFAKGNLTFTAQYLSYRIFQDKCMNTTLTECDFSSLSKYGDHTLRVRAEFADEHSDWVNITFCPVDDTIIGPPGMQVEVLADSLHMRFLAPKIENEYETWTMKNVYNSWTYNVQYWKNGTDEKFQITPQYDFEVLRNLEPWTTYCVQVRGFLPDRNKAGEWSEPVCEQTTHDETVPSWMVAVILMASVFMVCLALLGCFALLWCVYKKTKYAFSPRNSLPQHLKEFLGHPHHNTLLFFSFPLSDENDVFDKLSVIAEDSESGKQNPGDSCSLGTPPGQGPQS
Description: (§1) To test the binding properties of the IL-TIF ligand to several potential receptor components, BaF3 and BHK cells were transfected with expression plasmids including zcytor11 alone, CRF2-4 alone (Genbank Accession No. Z17227), zcytor11 (SEQ ID NO:1) and CRF2-4, or zcytoR11 and pDIRS1 (WIPO Publication WO99/46379, Schering Corporation, 1999), as described above. Untransfected BaF3 and BHK cells were included as controls. Cells were resuspended in FACS wash buffer (WB: PBS/1%BSA, supplemented with 3% human Ultraserum (Gemini BioProducts, Calabasas, Calif.)) counted and 1×10⁶ of each type were aliquoted into 5 ml polystyrene tubes. Cells were washed and pelleted, then incubated for 20 min on ice with 100 μl of WB only, or WB plus 10 μg/ml or 1 μg/ml biotinylated zcytolO protein. Cells were washed with 1.5 ml WB and pelleted, then incubated in 100 μl of 2.5 μg/ml phycoerthyrin-conjugated streptavidin (PE-SA, PharMingen, San Diego, Calif.) for another 20 min on ice. Cells were washed as before, resuspended in 0.4 ml of WB and analyzed on a FACScan using CellQuest software (Becton Dickinson, Mountain View, Calif.).

[2] = target: T2, zcytor11 receptor, full-length, on transfected BaF3 or BHK cells (zcytor11 alone) (human, UniProt Q8N6P7 18-574); test: as above
T2 construct: also called BaF3/zcytor11
T2 sequence: T1 sequence 1
Description: as §1

[3] = target: T3, CRF2-4 receptor, full-length, on transfected BaF3 or BHK cells (CRF2-4 alone) (UniProt Q08334 20-325, limits assumed); test: flow cytometry, biotinylated IL-TIF-CEE plus PE-streptavidin on BaF3 transfectants (same results stated for BHK transfectants)
T3 construct: whole, on cells; The full-length receptor on cells is tied only to Genbank Z17227; also called CFR2-4; BaF3/CRF2-4
T3 sequence (looked up): T1 sequence 2
Description: as §1

B1: biotinylated human IL-TIF-CEE (ligand)
chain: APISSHCRLDKSNFQQPYITNRTFMLAKEASLADNNTDVRLIGEKLFHGVSMSERCYLMKQVLNFTLEEVLFPQSDRFQPYMQEVVPFLARLSNRLSTCHIEGDDLHIQRNVQKLKDTVKKLGESGEIKAIGELDLLFMSLRNACIEYMPME
modifications: biotinylated with EZ-link Sulfo-NHS-LC-biotin (sites not given)
notes: also called biotin-IL-TIF; IL-TIF ligand
**Q.** Which results are given for B1?
**A.** binding result [1]: binds; binding result [2]: binds; binding result [3]: no binding (tested: 10 µg/ml or 1 µg/ml biotinylated protein)
